Data from patent publication US20100022454A1 (Novo Nordisk, published 2010).
Positions count from the first letter of the chain named. Numbers in names are those of the source.

T1: hPRLR on stably transfected BaF/3 cells (human, UniProt P16471 25-622)
T1 sequence (looked up): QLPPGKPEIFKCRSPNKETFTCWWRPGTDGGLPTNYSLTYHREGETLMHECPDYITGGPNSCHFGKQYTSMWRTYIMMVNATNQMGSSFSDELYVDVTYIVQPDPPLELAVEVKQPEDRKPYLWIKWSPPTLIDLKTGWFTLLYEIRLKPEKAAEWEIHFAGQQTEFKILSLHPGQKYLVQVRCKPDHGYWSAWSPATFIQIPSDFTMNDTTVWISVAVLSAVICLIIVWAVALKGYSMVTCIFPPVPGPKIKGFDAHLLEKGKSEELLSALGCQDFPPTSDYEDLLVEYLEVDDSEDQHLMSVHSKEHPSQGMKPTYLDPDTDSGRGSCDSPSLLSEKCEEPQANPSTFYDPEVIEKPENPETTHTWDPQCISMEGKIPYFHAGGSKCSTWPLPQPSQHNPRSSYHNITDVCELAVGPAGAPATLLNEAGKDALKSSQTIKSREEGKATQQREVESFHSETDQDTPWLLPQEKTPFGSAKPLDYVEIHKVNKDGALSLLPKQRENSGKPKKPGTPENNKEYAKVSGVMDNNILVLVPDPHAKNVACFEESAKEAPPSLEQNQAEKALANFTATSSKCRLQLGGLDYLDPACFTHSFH

B1: PRL G129R (ligand)
chain: LPICPGGAARCQVTLRDLFDRAVVLSHYIHNLSSEMFSEFDKRYTHGRGFITKAINSCHTSSLATPEDKEQAQQMNQKDFLSLIVSILRSWNEPLYHLVTEVRGMQEAPEAILSKAVEIEEQTKRLLERMELIVSQVHPETKENEIYPVWSGLPSLQMADEESRLSAYYNLLHCLRRDSHKIDNYLKLLKCRIIHNNNC
B2: human prolactin (PRL), wildtype (ligand)
chain: B1 chain with R129G
B3: PRL S61A G129R (ligand)
chain: B1 chain with S61A

Columns and labels:
[1] = biological target: prolactin receptor (PRLR) on T47D cells; test: cell-based or functional assay
[2] = biological target: T1, hPRLR on stably transfected BaF/3 cells; test: cell-based or functional assay

Binder | Apparent IC50 (nM) at 20 nM PRL; inhibition of PRL induced STAT3 phosphorylation, phospho-STAT3 ELISA on T47D cells [1] | EC50 (nM) of PRL in the presence of 1 µM PRL S61A G129R, BaF3 proliferation assay (AlamarBlue), n = 9 [2] | EC50 (nM), BaF3 proliferation assay (AlamarBlue), n = 31 [2]
B1 | 69 nM |  | 
B2 |  | 40 nM | 0.15 nM
B3 | 18 nM |  | 
